{"source": "the nanobody polyreactivity screen of Harvey et al. (2022)", "data": [{"test": "yeast display, Sf9 membrane polyspecificity reagent, FACS + sequencing; frameworks hold sequencing errors", "outline": "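Genes from sorted yeast were amplified by colony PCR, read by MiSeq 2 × 250 sequencing and filtered on CDR length. These cells carried a synthetic nanobody library in Saccharomyces cerevisiae BJ5465 and were sorted by FACS into low and high (top ~1%) gates on anti-HA and streptavidin fluorescence. Polyreactivity is labelled according to the gate of origin.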", "values": [{"sequence": "QVQLVESGGGLVQAGGSLRLSCAASGITFYSYAMGSYRQAPGKERELVAAISWRGGSTRYADSVKGRFTISRDNAKNTVYLQMNSLKPEDTAVYYCAARLRTKLPIPSTVGYWGQGTQVTVSS", "polyreactivity (PSR sort gate)": "high polyreactivity"}, {"sequence": "QVQLVESGGGLVQAGGSLRLSCAASGITFYSYAMGWYRQAPGKERELVAAINRSGGSTYYADSVKGRFTISRDNAKNTVYLQMNSLKPEDSAVYYCAAEEGRVFSGGYDYWGQGTQVTVSS", "polyreactivity (PSR sort gate)": "high polyreactivity"}, {"sequence": "QVQLVESGGGLVQAGGSLRLSCAASGITFYTYAMGWYRQAPGKERELVAAITGTGTSTYYADSVKGRFTISRDNAKNTVYLQMNSLKPEDTAVYYCAAYKRGLPVKRDSWGQGTQVTVSS", "polyreactivity (PSR sort gate)": "high polyreactivity"}, {"sequence": "QVQLVESGGGLVQAGGSLRLSCAASGITFYVYAMGWYRQAPGKERELVASITSGGGSTDYADSVKGRFTISRDNAKNTVYLQMNSLKPEDTAVYYCAARYPLLNQLYDFDYWGQGTQVTVSS", "polyreactivity (PSR sort gate)": "low polyreactivity"}, {"sequence": "QVQLVESGGGLVQAGGSLRLSCAASGITFYWYAMGWYRQAPGKERELVARISSTGGSTYYADSVKGRFTISRDNAKNTVYLQMNSLKPEDTAVYYCNAVGRLYLYGSWGQGTQVTLSS", "polyreactivity (PSR sort gate)": "high polyreactivity"}, {"sequence": "QVQLVESGGGLVQAGGSLRLSCAASGITFYYNTMGWYRQAPGKERELVAAISSRSGSTYYADSVKGRFTISRDKAKNNVSLQMNCLKPEDTAVYYCAARRAAKYYWGQGTQVTVSS", "polyreactivity (PSR sort gate)": "high polyreactivity"}, {"sequence": "QVQLVESGGGLVQAGGSLRLSCAASGITFYYYAMGWYRQAPGKERELVAAISSGGRTYYADSVKGRFTISRDNAKNTVYLQMNSLKPEDTAVYYCAASFLVTSREYDYWGQGTQVTVSS", "polyreactivity (PSR sort gate)": "high polyreactivity"}, {"sequence": "QVQLVESGGGLVQAGGSLRLSCAASGITGHNAMGWYRQAPGKERELVARISSGGRTNYADSVKGRFTISRDNAKNTVYLKMNSLKPEDTAVYYCAAGFRVGSFLRYNYWGQGTKVTVSS", "polyreactivity (PSR sort gate)": "high polyreactivity"}, {"sequence": "QVQLVESGGGLVQAGGSLRLSCAASGITIAGYAMGWYRQAPGKERELVAAISSRGSSTRYADSVKGRFTISRDNAKNTVYLQMNSLKPEDSAVYYCAARNEYWGQGTQVTVSS", "polyreactivity (PSR sort gate)": "high polyreactivity"}, {"sequence": "QVQLVESGGGLVQAGGSLRLSCAASGITIGRYAMGWYRQAPGKERELVAAISSTGGRTYYADSVKGRFTISRDNAKNTVYLQMNSLKPEDTAVYYCAKKFAVFVSGYGYWGQGTQVTVSS", "polyreactivity (PSR sort gate)": "high polyreactivity"}, {"sequence": "QVQLVESGGGLVQAGGSLRLSCAASGITIVYYAMGWYRQAPGKERELVAAITRGGNTYYADSVKGRFTISRDNAKNTVYLQMNSLKPEDTAVYYCAAVGYYYSALDMDYWGQGTQVTVSS", "polyreactivity (PSR sort gate)": "low polyreactivity"}, {"sequence": "QVQLVESGGGLVQAGGSLRLSCAASGITIYKYAMGWYRQAPGKERELVAAITRGGSTNYADSVKGRFTISRDNAKNTVYLQMNSLKPEDTAVYYCNKVYHWQSPGFGYGYWGQGSQVTVSS", "polyreactivity (PSR sort gate)": "high polyreactivity"}, {"sequence": "QVQLVESGGGLVQAGGSLRLSCAASGITIYYYAMGWYRQAPGTERELVAAISTTVGSTYYADSVKGRFTISRDNAKNTVYLQMNSLKPEDTAVYYCNAYRVYAWIEYNYWGQGTQVTVSS", "polyreactivity (PSR sort gate)": "low polyreactivity"}, {"sequence": "QVQLVESGGGLVQAGGSLRLSCAASGITLFGYAMGWYRQAPGKERELVAAITSGGSTYYADSVKGRFTISRDNAKNTVYLQMNSLKPEDTAVYYCATSYVYYKYYSQEIYVYGFEYWGQGTQVTVSS", "polyreactivity (PSR sort gate)": "high polyreactivity"}, {"sequence": "QVQLVESGGGLVQAGGSLRLSCAASGITLGTYVMGWYRQAPGKERELVAAISSGGSTYYADSVKGRFTISRDNAKNTVYLQMNSLKPEDTAVYYCAAQYYPYYDSRVSYDYWGQGTQVTVSS", "polyreactivity (PSR sort gate)": "low polyreactivity"}, {"sequence": "QVQLVESGGGLVQAGGSLRLSCAASGITLGYYAMGWYRQAPGKERELVAAITWSGTSTYYADSVKGRFTISRDNAKNTVYLQMNSLKPEDTAVYYCAAGFISQYQERGYWGQGTQVTVSS", "polyreactivity (PSR sort gate)": "low polyreactivity"}, {"sequence": "QVQLVESGGGLVQAGGSLRLSCAASGITLINYAMGWYRQAPGKERELVAAISTSGSSTYYADSVKGRFTISRDNAKNTVYLQMNSLKQEDTAVYYCNAEGQPLYVSWHDHRYIYGFDYWGQGTQVTVSS", "polyreactivity (PSR sort gate)": "low polyreactivity"}, {"sequence": "QVQLVESGGGLVQAGGSLRLSCAASGITLNRNAMGWYRQAHGKERELVARISRRGGTTYYADSVKGRFTISRDNAKNTVYLQMNSLKPEDTAVYYCNAGPYGGNPFDYWGQGTQVTVSS", "polyreactivity (PSR sort gate)": "high polyreactivity"}, {"sequence": "QVQLVESGGGLVQAGGSLRLSCAASGITLNRNAMGWYRQAPGKERELVSRISRRGGTTYYADSVKGRFTISRDNAKNTVYLLMNSLKPEDTAVYYCNAGPYGGNPFDYSGQGTQVTVSS", "polyreactivity (PSR sort gate)": "high polyreactivity"}, {"sequence": "QVQLVESGGGLVQAGGSLRLSCAASGITLRRNAMGWYRQATGKERELVAAISWSGGRTYYADSVKGRFTISRDNAKNTVYLQMNSLKPEDTAVYYCAARGYPLTAIDYWGQGTQVTVSS", "polyreactivity (PSR sort gate)": "high polyreactivity"}, {"sequence": "QVQLVESGGGLVQAGGSLRLSCAASGITLSTYAMGWYRPAPGKERELVATITGNGDRTYYADSVKGRFTISRDNAKNTVYLQMNSLKPEDTAVYYCAKDSPGDGIGYGYWGQGTQVTVSS", "polyreactivity (PSR sort gate)": "low polyreactivity"}, {"sequence": "QVQLVESGGGLVQAGGSLRLSCAASGITLSYNVMGWYRQEPGKEREFVAAITGGRTYYADSVKGRFTISRDNAKNTVYLQMNSLKPEDTAVYYCAADAPGHEYYYWGQGTQVTVSS", "polyreactivity (PSR sort gate)": "high polyreactivity"}, {"sequence": "QVQLVESGGGLVQAGGSLRLSCAASGITLSYYAMGWYGPAPGKERELVAAISSNGGRTYYADSVMGRFTISRDNAKNTVYLQMNSLKPEDTAVYYCAARVYDYPRFGYWGQGTQVTVSS", "polyreactivity (PSR sort gate)": "high polyreactivity"}, {"sequence": "QVQLVESGGGLVQAGGSLRLSCAASGITLYDNAMGWYRQAPGKERELVAAINVNDVSTYYADSVKGRFTISRDNAKNTVYLQKNSLKPEDTAVYYCAADSLYYGIGYWVVRYDYWGQGTQVTVSS", "polyreactivity (PSR sort gate)": "low polyreactivity"}, {"sequence": "QVQLVESGGGLVQAGGSLRLSCAASGITLYINAMGWYRQAPGKERELVAAITRIGGRTYYADSVKGRFTISRDNAKNTVYLQMNSLKPEDTAVYYCNARTYNAFNYWGQGTQVTVSS", "polyreactivity (PSR sort gate)": "high polyreactivity"}, {"sequence": "QVQLVESGGGLVQAGGSLRLSCAASGITLYKYAMGWYRQAPGKERELVASISRSGGSTYYADSVKGRFTISRDNAKNTVYLQMNSLKPEDTAVYYCNARAKSYRFGYWGQGTQVTVSS", "polyreactivity (PSR sort gate)": "high polyreactivity"}, {"sequence": "QVQLVESGGGLVQAGGSLRLSCAASGITLYLNAMGWYRQAPGKERELVAAITASGGSTYADSVKGRFTISRDNAQNTVYLQMNSLKPEDTAVYYCAADVIYEYYFTFGVGYYEYDYWGQGTQVTVSS", "polyreactivity (PSR sort gate)": "low polyreactivity"}, {"sequence": "QVQLVESGGGLVQAGGSLRLSCAASGITLYRYVMGWYRQAPGKERELVADISGRGTSTYYADSVKGRFTISRDNAKNTVYLQMNSLKPEETAVYYCNAEYTKTGALVIPYTYYYAEDYWGQGTQVTVSS", "polyreactivity (PSR sort gate)": "low polyreactivity"}, {"sequence": "QVQLVESGGGLVQAGGSLRLSCAASGITLYYNAMGWYRQAPGKESELVAAITWSGSRTYYADSVKGRFTISRDNAKNTVYLQMNSLKPEDTAVSYCAADVDFWNTVEDMDYWGQGNQVTVSS", "polyreactivity (PSR sort gate)": "low polyreactivity"}, {"sequence": "QVQLVESGGGLVQAGGSLRLSCAASGITSGNNAMGWYRQAPGKERELVAAISWTGGSTYYADSVKGRFTISRDNAKNTVYLEMNSLKPEDTAVYYCAAGGWDPFTEQHYEYWGQGTQVTVSS", "polyreactivity (PSR sort gate)": "low polyreactivity"}, {"sequence": "QVQLVESGGGLVQAGGSLRLSCAASGITSGTYAMGRYRQAPGKERELVAGISRSGTRTYYADSVKGRFTISRDNAKNTVYLQMNSLKPEDTEVYYCNTYVGRRPGYGYWGQGTQVTVSS", "polyreactivity (PSR sort gate)": "high polyreactivity"}, {"sequence": "QVQLVESGGGLVQAGGSLRLSCAASGITSHPYDMGWYRQAPGKERELVAVITSGGSTSYADSVKGRFTISRDNAKNTVYLQMNSLKPEDTAVYYCNADSWYAWYSYGYDYWGQGTQVTVSS", "polyreactivity (PSR sort gate)": "low polyreactivity"}, {"sequence": "QVQLVESGGGLVQAGGSLRLSCAASGITSSLNAMGWYRQAPGKERELVAAISWRGGSTYYADSVKGRFTISRDNAKNTVYLQMNSLKPEDTAVYYCAARSSYRKMDYWGQGTQVTVSS", "polyreactivity (PSR sort gate)": "high polyreactivity"}, {"sequence": "QVQLVESGGGLVQAGGSLRLSCAASGITSSTYAMGWYRQAPGKERELVAAISLSGSSTNYADSVKGRFTISRDNAKNTVYLQMNSLKPEDTAVYYCAATNYRTYPYGYWGQGTQVTVSS", "polyreactivity (PSR sort gate)": "high polyreactivity"}, {"sequence": "QVQLVESGGGLVQAGGSLRLSCAASGITSYYYTMGWYRQAPGKERELVAAITSGGSTYYADSVKGRFTISRDNAKNSVYLQMNSLKPEDTAVYYCTADNPRYRGSKYGPYDDYNYWGQGTQVTVSS", "polyreactivity (PSR sort gate)": "low polyreactivity"}, {"sequence": "QVQLVESGGGLVQAGGSLRLSCAASGITVLKYVMGWYRQAPGKEREFVAAITARGGTTYYADSVKGRFTISRDNAKNTVYLQMNSLKQEDTAVYYCAARSYYSGLAYYYWGQGTQVTVSS", "polyreactivity (PSR sort gate)": "high polyreactivity"}, {"sequence": "QVQLVESGGGLVQAGGSLRLSCAASGITYGIYSMGWYRQAPGKERELVAAIDGSDGSTYYADSVKGRFTISRDNAKNTVYLQMNSLKPEDTAVYYCNADTGGYYVTGSYLYNEYDYWGQGTQVTVSS", "polyreactivity (PSR sort gate)": "low polyreactivity"}, {"sequence": "QVQLVESGGGLVQAGGSLRLSCAASGITYTSYAMGWYRQAPGKERELVAAISSSGGSTYYADSVKGRFTISRDNAKNTVYLQMNSLKPEDTAVYYCIARPRSRSPRVEYDYWGQGTQVTVSS", "polyreactivity (PSR sort gate)": "high polyreactivity"}, {"sequence": "QVQLVESGGGLVQAGGSLRLSCAASGITYVSNAMGWYRQAPGKERELFAANTRRGTSTYYADSVKGRFTLSRDNAKNTVYLQMNSLKPVDTAVYYCNKVWKYSSSGFGKEVYGYDYWGQGTQVTVSS", "polyreactivity (PSR sort gate)": "high polyreactivity"}, {"sequence": "QVQLVESGGGLVQAGGSLRLSCAASGIYAMGWYRQAPGKERELVAAIRWSGGSTYYADSVKGRFTISRDNAKNTVYLQMNSLKPEDTAVYYCAKRLRPGGYWYDYWGQGTQVTVSS", "polyreactivity (PSR sort gate)": "high polyreactivity"}, {"sequence": "QVQLVESGGGLVQAGGSLRLSCAASGIYYNAMGWYRHAPGKERELVAAITTGDRTNYADSVKGRFTISRDNAKNTVYLQMNSLKPEDTAVYYCNAVVERLSSTARDFAYDYWGQGTQVTVSS", "polyreactivity (PSR sort gate)": "low polyreactivity"}, {"sequence": "QVQLVESGGGLVQAGGSLRLSCAASGLAFVFNAMGWYRQAPGKERELVAAISSGDDTNYADSVKGRFTISRDNAKNTVYLQMNSLKPEDTAVYNCAKTSDPIKRPYYYWGQGTQVTVSS", "polyreactivity (PSR sort gate)": "low polyreactivity"}, {"sequence": "QVQLVESGGGLVQAGGSLRLSCAASGLFFFYYAMGWYRQAPGKERELDAAIRTNYADSVKGRFTISRDNAKNTVYLQMNSLKPEDTAVYYCAAESSQTPTSAFDYWGQGTQVTVSS", "polyreactivity (PSR sort gate)": "low polyreactivity"}]}]}
